The text below walks through data of patent US20180187185.

Common to all, as to assay: cell_activity
Data set [1] concerns AAVS1 TALE-FokI (FokI-XTN) (Xanthomonas TALE). Conditions: average of replicates; locus inferred AAVS1; sequencing gave 6.5% indels (FIG. 12).
The subject of data set [2] is AAVS1 TALE-Clo051 (Clo051-XTN) (Xanthomonas TALE). The following applies: average of replicates; locus inferred AAVS1; sequencing gave 9.3% indels (FIG. 11).
The test system of data set [3] is Bmpr2 REV RTN (Ralstonia TALE 16 EBEs in Xanthomonas TAL backbone-FokI) (Ralstonia (TALE repeats); Xanthomonas backbone). The following applies: RTN pair p1+p2, Rat C6, Surveyor 250 bp band; 5.43% by 150 bp band; printed SEQ 150 differs from SEQ 148 complement at position 5.
The test system of data set [4] is Bmpr2 FWD RTN (Ralstonia TALE 16 EBEs in Xanthomonas TAL backbone-FokI) (Ralstonia (TALE repeats); Xanthomonas backbone). The following applies: RTN pair p1+p2, Rat C6, Surveyor 250 bp band; 5.43% by 150 bp band.
The test system of data set [5] is Bmpr2 XTN (Xanthomonas TALEN-FokI pair) (Xanthomonas). Conditions: TALEN pair, Rat C6, Surveyor 250 bp band; 3.66% by 150 bp band; XTN RVDs and half-sites not stated.

On to AAVS1 target locus, for which the values for the activity in data set [1] and in data set [2] were 7.1 % cutting and 8.1 % cutting, respectively.

In the case of “TGACAGGTAAACGAAATA (double strand) [Bmpr2 reverse half-site (complement of the printed strand)]”, the activity in data set [3] stood at 1.82 % cutting.

In data set [4], “TTGATAGTCGCCTTATGT (double strand) [Bmpr2 forward half-site]” yielded an activity of 1.82 % cutting.

With “TTGATAGTCGCCTTATGTTTTGGATACAGAATGTTGACAGGTAAACGAAATA (double strand) [Bmpr2 full TALEN target site]”, in data set [5], the activity was 5.75 % cutting.
